Test results taken from paper PMC11077872, “Sustainable production of multimeric and functional recombinant human adiponectin using genome-edited chickens” (Journal of Biological Engineering, 2024).
Where “and” joins values, the source holds several entries; their conditions need not be identical. Equal entries are not always repeated.

What was measured:
[1] = target: the molecule itself; assay: non-reducing SDS-PAGE with western blot; egg white of hens of generations G1-G4 diluted 500 times, mixed with native sample buffer (non-reducing), SDS-PAGE, anti-ADPN blot; with beta-mercaptoethanol and 95 °C mostly monomer at 28 kDa and a weak trimer signal
[2] = target: the molecule itself; assay: non-reducing SDS-PAGE with western blot; 100 ng of purified or commercial hADPN, mixed with native sample buffer (non-reducing), SDS-PAGE, anti-ADPN blot; with beta-mercaptoethanol and 95 °C mostly monomer, some trimer

B1: recombinant human adiponectin (hADPN) from egg white of OVA ADPN knock-in genome-edited chickens (natural protein, UniProt Q15848 19-244, looked up)
chain: ETTTQGPGVLLPLPKGACTGWMAGIPGHPGHNGAPGRDGRDGTPGEKGEKGDPGLIGPKGDIGETGVPGAEGPRGFPGIQGRKGEPGEGAYVYRSAFSVGLETYVTIPNMPIRFTKIFYNQQNHYDGSTGKFHCNIPGLYYFAYHITVYMKDVKVSLFKKDKAMLFTYDQYQENNVDQASGSVLLHLEVGDQVWLQVYGEGERNGLYADNDNDSTFTGFLLYHDTN
notes: human adiponectin (ADPN), expressed from the chicken ovalbumin locus by knock-in; A mixture of hexamers and HMW multimers; also called EW-derived hADPN; EW-derived recombinant hADPN; source: egg white of OVA ADPN knock-in hens (G1-G4), diluted egg white; also purified from egg white (ammonium sulfate, HiTrap Q, Superdex 200 SEC)
stoichiometry N [1]: 6

B2: serum-derived commercial hADPN (natural protein, human, UniProt Q15848 19-244, looked up)
chain: B1 chain
notes: human adiponectin (ADPN), native protein from human serum; also called native serum-derived hADPN; human serum hADPN (positive control); source: bought: ProSpec (CYT-024), derived from human serum
stoichiometry N [2]: 6

B3: commercial recombinant hADPN derived from human embryonic kidney (HEK) 293 cells with a C-terminal FLAG tag (natural protein, UniProt Q15848 19-244, looked up)
chain: B1 chain
notes: human adiponectin (ADPN); Mixture of trimers, hexamers and HMW forms; also called HEK293 cell hADPN; HEK293 cell-derived commercial hADPN; source: bought: Biovendor R&D (RD172023100), HEK293 cells; not shown: FLAG, C-terminal, kept
stoichiometry N [2]: 6 and 3

B4: High-Five (Hi-5) cell-derived recombinant hADPN (natural protein, human, UniProt Q15848 19-244, looked up)
chain: B1 chain
notes: human adiponectin (ADPN); Mostly trimers, with hexamers and a weak monomer signal; also called Hi-5 cell hADPN; Hi-5 cell-derived commercial hADPN; source: bought: PeproTech (450-24), Hi-5 cells
stoichiometry N [2]: 3 and 6
